Some targets named below: Inadl_10, Q8NI35; LNX1_2, Q8TBB1; CASK, O14936; GRID2IP_1, A4D2P6; IL16_4, Q14005; ARHGEF12, Q9NZN5-2; GRIP2_6, Q9C0E4; TJP1_2, Q07157; MAGI1_1, Q96QZ7; Inadl_2, Q8NI35; PDZRN4_1, Q6ZMN7; HTRA1, Q92743; DLG2_2, Q15700.
What all share (assay): holdup assay
Common to all, as to set-up: key: below the threshold = too weak to quantify, mostly under pKd 3.1 to 4
Settings in all cases: plain residues with an end cap or a label only (N-terminal biotin on a linker: ado-ado)

In a further test the target is T1, APBA2_1, Q99767.
T1 sequence (Q99767 563-664, limits assumed, looked up): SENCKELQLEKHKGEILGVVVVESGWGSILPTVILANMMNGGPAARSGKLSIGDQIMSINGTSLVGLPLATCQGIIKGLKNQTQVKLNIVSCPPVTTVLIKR

The next test deals with T2, NHERF3_3, Q5T2W1.
T2 sequence (Q5T2W1 238-333, limits assumed, looked up): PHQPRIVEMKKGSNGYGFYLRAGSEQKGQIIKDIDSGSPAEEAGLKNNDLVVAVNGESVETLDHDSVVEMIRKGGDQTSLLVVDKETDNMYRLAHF

A further test has as its target T3, NHERF3_1, Q5T2W1.
T3 sequence (Q5T2W1 4-100, limits assumed, looked up): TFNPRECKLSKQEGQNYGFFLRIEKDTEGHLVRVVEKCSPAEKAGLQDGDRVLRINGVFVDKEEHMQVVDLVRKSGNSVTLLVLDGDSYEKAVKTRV

The next test addresses T4, RADIL, Q96JH8.
T4 sequence (Q96JH8 971-1071, limits assumed, looked up): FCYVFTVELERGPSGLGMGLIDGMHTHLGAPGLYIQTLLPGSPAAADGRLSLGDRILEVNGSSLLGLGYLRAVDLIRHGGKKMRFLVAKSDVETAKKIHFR

In another test the target is T5, SNTG1, Q9NSN8.
T5 sequence (Q9NSN8 52-150, limits assumed, looked up): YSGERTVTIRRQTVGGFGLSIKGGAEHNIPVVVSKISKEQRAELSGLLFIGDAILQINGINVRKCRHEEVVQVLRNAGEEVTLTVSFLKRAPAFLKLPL

The target of the next test is T6, SYNJ2BP, P57105.
T6 sequence (P57105 8-110, limits assumed, looked up): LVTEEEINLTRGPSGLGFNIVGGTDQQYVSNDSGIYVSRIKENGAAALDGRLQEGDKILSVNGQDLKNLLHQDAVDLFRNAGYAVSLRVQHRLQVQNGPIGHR

Another test deals with T7, GRIP1_2, Q9Y3R0.
T7 sequence (Q9Y3R0 145-248, limits assumed, looked up): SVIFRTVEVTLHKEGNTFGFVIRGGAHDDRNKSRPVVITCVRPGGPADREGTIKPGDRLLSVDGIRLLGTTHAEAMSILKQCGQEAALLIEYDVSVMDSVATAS

Another test concerns the target T8, TJP3_3, O95049.
T8 sequence (O95049 375-456, limits assumed, looked up): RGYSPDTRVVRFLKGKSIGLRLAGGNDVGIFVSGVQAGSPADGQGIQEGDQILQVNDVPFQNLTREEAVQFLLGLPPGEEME

In another test the target is T9, GRIP1_3, Q9Y3R0.
T9 sequence (Q9Y3R0 247-346, limits assumed, looked up): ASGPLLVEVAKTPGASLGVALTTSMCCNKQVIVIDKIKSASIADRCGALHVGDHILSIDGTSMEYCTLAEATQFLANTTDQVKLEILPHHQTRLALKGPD

The next test deals with T10, ARHGEF11, O15085.
T10 sequence (O15085 42-136, limits assumed, looked up): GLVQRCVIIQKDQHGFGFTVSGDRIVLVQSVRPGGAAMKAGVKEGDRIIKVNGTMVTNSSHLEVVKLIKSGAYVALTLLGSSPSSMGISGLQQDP

The target of a further test is T11, RHPN1, Q8TCX5.
T11 sequence (Q8TCX5 508-602, limits assumed, looked up): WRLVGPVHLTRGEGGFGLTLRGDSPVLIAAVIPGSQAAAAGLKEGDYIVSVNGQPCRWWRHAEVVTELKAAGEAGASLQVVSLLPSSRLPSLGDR

Another test has as its target T12, LIN7C, Q9NUP9.
T12 sequence (Q9NUP9 88-185, limits assumed, looked up): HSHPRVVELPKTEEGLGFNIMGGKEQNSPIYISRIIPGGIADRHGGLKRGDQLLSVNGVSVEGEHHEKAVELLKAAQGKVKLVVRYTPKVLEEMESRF

The record followed here is paper PMC9482650, “Quantitative fragmentomics allow affinity mapping of interactomes” (Nature Communications, 2022).

Sequence of LNX1_2, Q8TBB1 (Q8TBB1 371-470): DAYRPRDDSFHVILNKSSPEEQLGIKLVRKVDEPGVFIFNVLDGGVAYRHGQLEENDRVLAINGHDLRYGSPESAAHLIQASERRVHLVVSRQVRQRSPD
Sequence of CASK, O14936 (O14936 487-570): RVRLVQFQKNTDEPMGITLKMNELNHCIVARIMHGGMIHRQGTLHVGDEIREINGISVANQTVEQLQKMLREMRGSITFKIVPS
Sequence of MAGI1_1, Q96QZ7 (Q96QZ7 1-106): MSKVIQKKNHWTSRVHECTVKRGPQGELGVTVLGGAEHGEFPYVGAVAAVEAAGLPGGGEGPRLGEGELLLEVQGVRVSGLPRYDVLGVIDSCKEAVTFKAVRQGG
Sequence of Inadl_2, Q8NI35 (Q8NI35 238-335): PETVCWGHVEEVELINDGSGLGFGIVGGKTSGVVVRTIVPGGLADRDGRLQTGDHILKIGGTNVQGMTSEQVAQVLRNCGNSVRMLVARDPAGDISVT
Sequence of GRID2IP_1, A4D2P6 (A4D2P6 1-87): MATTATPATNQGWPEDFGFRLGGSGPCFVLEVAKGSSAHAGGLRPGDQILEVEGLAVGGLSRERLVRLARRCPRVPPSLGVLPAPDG
Sequence of Inadl_10, Q8NI35 (Q8NI35 1673-1763): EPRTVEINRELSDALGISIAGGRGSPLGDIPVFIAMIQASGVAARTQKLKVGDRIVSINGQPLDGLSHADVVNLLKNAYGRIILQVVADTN
Sequence of GRIP2_6, Q9C0E4 (Q9C0E4 648-740): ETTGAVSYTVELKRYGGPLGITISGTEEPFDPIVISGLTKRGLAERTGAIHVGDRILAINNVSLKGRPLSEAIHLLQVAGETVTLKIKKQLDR
Sequence of IL16_4, Q14005 (Q14005 1229-1329): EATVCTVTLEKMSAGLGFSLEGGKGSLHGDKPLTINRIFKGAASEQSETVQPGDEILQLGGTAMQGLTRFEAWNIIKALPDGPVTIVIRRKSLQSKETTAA
Sequence of TJP1_2, Q07157 (Q07157 181-274): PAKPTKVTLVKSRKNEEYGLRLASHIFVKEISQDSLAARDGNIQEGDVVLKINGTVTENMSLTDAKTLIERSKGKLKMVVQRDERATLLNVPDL
Sequence of ARHGEF12, Q9NZN5-2 (Q9NZN5 other isoform, or with tags, fused parts or gaps): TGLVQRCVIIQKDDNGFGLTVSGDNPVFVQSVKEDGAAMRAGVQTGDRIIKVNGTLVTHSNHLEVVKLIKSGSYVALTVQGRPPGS
Sequence of PDZRN4_1, Q6ZMN7 (Q6ZMN7 213-318): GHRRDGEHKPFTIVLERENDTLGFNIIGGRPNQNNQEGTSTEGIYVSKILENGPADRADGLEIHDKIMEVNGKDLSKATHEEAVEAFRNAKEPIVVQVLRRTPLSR
Sequence of HTRA1, Q92743 (Q92743 360-477): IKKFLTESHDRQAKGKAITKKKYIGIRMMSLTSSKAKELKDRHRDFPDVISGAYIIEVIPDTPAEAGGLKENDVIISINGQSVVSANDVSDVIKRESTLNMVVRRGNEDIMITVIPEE
Sequence of DLG2_2, Q15700 (Q15700 189-283): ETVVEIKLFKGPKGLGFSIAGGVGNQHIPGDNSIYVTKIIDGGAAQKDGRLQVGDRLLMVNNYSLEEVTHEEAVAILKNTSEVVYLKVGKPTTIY

B1: LSM14A, Q8ND56;Q8ND56-2 (peptide)
chain: EYRKDNKVAA
On to B1, for which the negative logarithm of the Kd (pKd) entry with APBA2_1, Q99767 is given as “below the threshold”; with Inadl_10, Q8NI35 it was “below the threshold”; with LNX1_2, Q8TBB1 it was “below the threshold”; with CASK, O14936, “below the threshold”; with GRID2IP_1, A4D2P6 it was “below the threshold”; in the test with IL16_4, Q14005, “below the threshold”. The negative-log Kd (pKd) result is “below the threshold” with NHERF3_3, Q5T2W1; “below the threshold” with NHERF3_1, Q5T2W1; “below the threshold” in the test with RADIL, Q96JH8; “below the threshold” with SNTG1, Q9NSN8; “below the threshold” in the test with SYNJ2BP, P57105; “below the threshold” in the test with GRIP1_2, Q9Y3R0. In addition, the pKd entry with ARHGEF12, Q9NZN5-2 was “below the threshold”; in the test with GRIP2_6, Q9C0E4 it was “below the threshold”; with TJP1_2, Q07157, “below the threshold”; with TJP3_3, O95049 it was “below the threshold”; in the test with MAGI1_1, Q96QZ7, “below the threshold”; with GRIP1_3, Q9Y3R0, “below the threshold”. Moreover, the pKd entry in the test with ARHGEF11, O15085 is recorded as “below the threshold”; with RHPN1, Q8TCX5, “below the threshold”; in the test with Inadl_2, Q8NI35 it was “below the threshold”; with LIN7C, Q9NUP9, “below the threshold”; with PDZRN4_1, Q6ZMN7 it was “below the threshold”.

B2: NDE1, Q9NXR1;Q9NXR1-2 (peptide)
chain: KSTTRSSSSC
With B2, the negative-log Kd (pKd) entry is “below the threshold” in the test with APBA2_1, Q99767; “below the threshold” in the test with Inadl_10, Q8NI35; “below the threshold” in the test with LNX1_2, Q8TBB1; “below the threshold” with CASK, O14936; “below the threshold” with GRID2IP_1, A4D2P6; “below the threshold” with IL16_4, Q14005. For the same molecule, the negative logarithm of the Kd (pKd) entry was “below the threshold” with NHERF3_3, Q5T2W1; 3.91 with NHERF3_1, Q5T2W1; “below the threshold” with RADIL, Q96JH8; “below the threshold” with SNTG1, Q9NSN8; “below the threshold” with GRIP1_2, Q9Y3R0; 4.62 with ARHGEF12, Q9NZN5-2. For the same molecule, the pKd result is “below the threshold” in the test with GRIP2_6, Q9C0E4; “below the threshold” with TJP1_2, Q07157; “below the threshold” with TJP3_3, O95049; “below the threshold” with HTRA1, Q92743; “below the threshold” with MAGI1_1, Q96QZ7; “below the threshold” with DLG2_2, Q15700. Also, the pKd result in the test with GRIP1_3, Q9Y3R0 is “below the threshold”; in the test with ARHGEF11, O15085, “below the threshold”; in the test with RHPN1, Q8TCX5, “below the threshold”; in the test with Inadl_2, Q8NI35 it was “below the threshold”; with PDZRN4_1, Q6ZMN7, “below the threshold”.

By pKd is commonly meant −log10 of the Kd, conventionally taken in molar units.
